The source of these data is paper PMC10449495.

The target of assay [1] is IpaB (invasion plasmid antigen B), affinity tag-free recombinant. Nature of the assay: assembly with LPS, anion-exchange purification of the complex, SDS-PAGE gel densitometry; S. sonnei LPS, 1x (0.56 w LPS/w protein); 8 uM IpaC + 1 uM IpaB in 5.1 M urea, 37 C 2 h; Q Sepharose HP, eluted at 50% Buffer B; %Band ratio.
Assay [2] shares this target. Nature of the assay: assembly with LPS, anion-exchange purification of the complex, SDS-PAGE gel densitometry; S. flexneri 3a LPS, 8x (4.48 w LPS/w protein); 8 uM IpaC + 1 uM IpaB in 5.1 M urea, 37 C 2 h; Q Sepharose HP, eluted at 50% Buffer B; %Band ratio.
Assay [3] shares this target. Nature of the assay: assembly with LPS, anion-exchange purification of the complex, SDS-PAGE gel densitometry; S. flexneri 6 LPS, 8x (4.48 w LPS/w protein); 8 uM IpaC + 1 uM IpaB in 5.1 M urea, 37 C 2 h; Q Sepharose HP, eluted at 50% Buffer B; %Band ratio.
Assay [4] has the same target. Nature of the assay: assembly with LPS, anion-exchange purification of the complex, SDS-PAGE gel densitometry; S. sonnei LPS, 8x (4.48 w LPS/w protein); 8 uM IpaC + 1 uM IpaB in 5.1 M urea, 37 C 2 h; Q Sepharose HP, eluted at 50% Buffer B; %Band ratio.
The target is the same in assay [5]. As to the kind of experiment: assembly with LPS, anion-exchange purification of the complex, SDS-PAGE gel densitometry; S. flexneri 2a LPS, 2x (1.12 w LPS/w protein); 8 uM IpaC + 1 uM IpaB in 5.1 M urea, 37 C 2 h; Q Sepharose HP, eluted at 50% Buffer B; %Band ratio.
The target is the same in assay [6]. As to the kind of experiment: assembly with LPS, anion-exchange purification of the complex, SDS-PAGE gel densitometry; S. flexneri 3a LPS, 4x (2.24 w LPS/w protein); 8 uM IpaC + 1 uM IpaB in 5.1 M urea, 37 C 2 h; Q Sepharose HP, eluted at 50% Buffer B; %Band ratio.
Assay [7] shares this target. As to the kind of experiment: assembly with LPS, anion-exchange purification of the complex, SDS-PAGE gel densitometry; S. flexneri 6 LPS, 4x (2.24 w LPS/w protein); 8 uM IpaC + 1 uM IpaB in 5.1 M urea, 37 C 2 h; Q Sepharose HP, eluted at 50% Buffer B; %Band ratio.
Assay [8] has the same target. Nature of the assay: assembly with LPS, anion-exchange purification of the complex, SDS-PAGE gel densitometry; S. flexneri 6 LPS, 2x (1.12 w LPS/w protein); 8 uM IpaC + 1 uM IpaB in 5.1 M urea, 37 C 2 h; Q Sepharose HP, eluted at 50% Buffer B; %Band ratio.
Assay [9] has the same target. Nature of the assay: assembly with LPS, anion-exchange purification of the complex, SDS-PAGE gel densitometry; S. sonnei LPS, 4x (2.24 w LPS/w protein); 8 uM IpaC + 1 uM IpaB in 5.1 M urea, 37 C 2 h; Q Sepharose HP, eluted at 50% Buffer B; %Band ratio.
The target is the same in assay [10]. As to the kind of experiment: assembly with LPS, anion-exchange purification of the complex, SDS-PAGE gel densitometry; S. flexneri 6 LPS, 1x (0.56 w LPS/w protein); 8 uM IpaC + 1 uM IpaB in 5.1 M urea, 37 C 2 h; Q Sepharose HP, eluted at 50% Buffer B; %Band ratio.
Assay [11] shares this target. As to the kind of experiment: assembly with LPS, anion-exchange purification of the complex, SDS-PAGE gel densitometry; S. flexneri 2a LPS, 1x (0.56 w LPS/w protein); 8 uM IpaC + 1 uM IpaB in 5.1 M urea, 37 C 2 h; Q Sepharose HP, eluted at 50% Buffer B; %Band of full-size IpaC divided by %Band of full-size IpaB.
Assay [12] has the same target. Nature of the assay: assembly with LPS, anion-exchange purification of the complex, SDS-PAGE gel densitometry; S. flexneri 3a LPS, 1x (0.56 w LPS/w protein); 8 uM IpaC + 1 uM IpaB in 5.1 M urea, 37 C 2 h; Q Sepharose HP, eluted at 50% Buffer B; %Band ratio.
Assay [13] shares this target. As to the kind of experiment: assembly with LPS, anion-exchange purification of the complex, SDS-PAGE gel densitometry; S. flexneri 3a LPS, 2x (1.12 w LPS/w protein); 8 uM IpaC + 1 uM IpaB in 5.1 M urea, 37 C 2 h; Q Sepharose HP, eluted at 50% Buffer B; %Band ratio.
Assay [14] shares this target. As to the kind of experiment: assembly with LPS, anion-exchange purification of the complex, SDS-PAGE gel densitometry; S. flexneri 2a LPS, 4x (2.24 w LPS/w protein); 8 uM IpaC + 1 uM IpaB in 5.1 M urea, 37 C 2 h; Q Sepharose HP, eluted at 50% Buffer B; %Band ratio.
The target is the same in assay [15]. Nature of the assay: assembly with LPS, anion-exchange purification of the complex, SDS-PAGE gel densitometry; S. flexneri 2a LPS, 8x (4.48 w LPS/w protein); 8 uM IpaC + 1 uM IpaB in 5.1 M urea, 37 C 2 h; Q Sepharose HP, eluted at 50% Buffer B; %Band ratio.
For assay [16] the target is unchanged. As to the kind of experiment: assembly with LPS, anion-exchange purification of the complex, SDS-PAGE gel densitometry; S. sonnei LPS, 2x (1.12 w LPS/w protein); 8 uM IpaC + 1 uM IpaB in 5.1 M urea, 37 C 2 h; Q Sepharose HP, eluted at 50% Buffer B; %Band ratio.

B1: IpaC (invasion plasmid antigen C), affinity tag-free recombinant (natural protein)
chain: MEIQNTKPTQTLYTDISTKQTQSSSETQKSQNYQQIAAHIPLNVGKNPVLTTTLNDDQLLKLSEQVQHDSEIIARLTDKKMKDLSEMSHTLTPENTLDISSLSSNAVSLIISVAVLLSALRTAETKLGSQLSLIAFDATKSAAENIVRQGLAALSSSITGAVTQVGITGIGAKKTHSGISDQKGALRKNLATAQSLEKELAGSKLGLNKQIDTNITSPQTNSSTKFLGKNKLAPDNISLSTEHKTSLSSPDISLQDKIDTQRRTYELNTLSAQQKQNIGRATMETSAVAGNISTSGGRYASALEEEEQLISQASSKQAEEASQVSKEASQATNQLIQKLLNIIDSINQSKNSAASQIAGNIRA
Regarding B1, the IpaC:IpaB ratio in the complex with LPS (gel densitometry) is 2.6 IpaC:IpaB in assay [1]; 5.8 IpaC:IpaB in assay [2]; 3.9 IpaC:IpaB in assay [3]; 7.2 IpaC:IpaB in [4]; 6.9 IpaC:IpaB in assay [5]; 5.8 IpaC:IpaB in [6]. For the same molecule, the IpaC:IpaB ratio in the complex with LPS (gel densitometry) in [7] was 4 IpaC:IpaB; in assay [8], 4.1 IpaC:IpaB; in assay [9] it was 9.4 IpaC:IpaB; in [10] it was 2.1 IpaC:IpaB; in [11], 3.8 IpaC:IpaB; in [12], 2.5 IpaC:IpaB. In addition, the IpaC:IpaB ratio in the complex with LPS (gel densitometry) in [13] is 3.8 IpaC:IpaB; in assay [14], 7.8 IpaC:IpaB; in assay [15], 9.4 IpaC:IpaB; in [16], 5.6 IpaC:IpaB.
